Test results as given in patent publication US20240261333A1, “NOVEL TARGETS FOR ENHANCING ANTI-TUMOR IMMUNITY” (THE BROAD INSTITUTE, INC., priority 2021, published 2024).

Target: T1, B3GNT2 (Homo sapiens, UniProt Q9NY97)
T1 construct: The respective ORFs of candidate genes [CD274 (NM_014143), MCL1 (NM_021960), JUNB (NM_002229), and B3GNT2 (NM_006577)] were synthesized; expressed in transfected cells; host or cells: A375 melanoma cells (lentiviral ORF overexpression)
T1 sequence (Q9NY97 1-397): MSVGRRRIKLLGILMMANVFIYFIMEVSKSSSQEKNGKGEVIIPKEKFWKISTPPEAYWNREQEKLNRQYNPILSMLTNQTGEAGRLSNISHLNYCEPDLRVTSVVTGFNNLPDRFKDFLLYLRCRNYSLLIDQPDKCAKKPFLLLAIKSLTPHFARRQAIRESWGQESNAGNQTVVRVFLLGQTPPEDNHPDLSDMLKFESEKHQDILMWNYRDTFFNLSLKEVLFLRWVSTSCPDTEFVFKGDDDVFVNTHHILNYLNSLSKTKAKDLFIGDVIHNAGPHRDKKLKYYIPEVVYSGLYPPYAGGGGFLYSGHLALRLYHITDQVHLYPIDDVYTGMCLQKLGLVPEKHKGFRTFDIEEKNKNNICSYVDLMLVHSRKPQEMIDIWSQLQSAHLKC
Test: Co-IP of FLAG-tagged B3GNT2 followed by mass spectrometry
Format: cell-based
Set-up: C-term IgG / C-term flag: unit not given here
In short: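 FLAG-tagged B3GNT2 immunoprecipitated from cell lysate (HEPES, 1% Triton X-100, 150 mM NaCl) with anti-FLAG versus […], overnight at 4° C, then captured on Protein A/G magnetic beads for 4 h. Two biological replicates per condition. Peptides fractionated and analyzed by nano-LC on an Orbitrap Elite in data-dependent mode.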

[1] = Co-IP followed by mass spectrometry of B3GNT2, C-term tag, FLAG pull-down
[2] = Co-IP followed by mass spectrometry of B3GNT2, C-term tag, IgG pull-down
[3] = Co-IP followed by mass spectrometry of B3GNT2, N-term tag, FLAG pull-down
[4] = Co-IP followed by mass spectrometry of B3GNT2, N-term tag, IgG pull-down
[5] = Co-IP with FLAG antibody, C-terminally FLAG-tagged B3GNT2, mass spectrometry count, unit not given
[6] = Co-IP with FLAG antibody, N-terminally FLAG-tagged B3GNT2, mass spectrometry count, unit not given
[7] = Co-IP with IgG control antibody, C-terminally FLAG-tagged B3GNT2, mass spectrometry count, unit not given
[8] = Co-IP with IgG control antibody, N-terminally FLAG-tagged B3GNT2, mass spectrometry count, unit not given

B1: CSE1L (protein)
chain: MELSDANLQTLTEYLKKTLDPDPAIRRPAEKFLESVEGNQNYPLLLLTLLEKSQDNVIKVCASVTFKNYIKRNWRIVEDEPNKICEADRVAIKANIVHLMLSSPEQIQKQLSDAISIIGREDFPQKWPDLLTEMVNRFQSGDFHVINGVLRTAHSLFKRYRHEFKSNELWTEIKLVLDAFALPLTNLFKATIELCSTHANDASALRILFSSLILISKLFYSLNFQDLPEFFEDNMETWMNNFHTLLTLDNKLLQTDLVSNAIQFLASVCERPHYKNLFEDQNTLTSICEKVIVPNMEFRAADEEAFEDNSEEYIRRDLEGSDIDTRRRAACDLVRGLCKFFEGPVTGIFSGYVNSMLQEYAKNPSVNWKHKDAAIYLVTSLASKAQTQKHGITQANELVNLTEFFVNHILPDLKSANVNEFPVLKADGIKYIMIFRNQVPKEHLLVSIPLLINHLQAESIVVHTYAAHALERLFTMRGPNNATLFTAAEIAPFVEILLTNLFKALTLPGSSENEYIMKAIMRSFSLLQEAIIPYIPTLITQLTQKLLAVSKNPSKPHFNHYMFEAICLSIRITCKANPAAVVNFEEALFLVFTEILQNDVQEFIPYVFQVMSLLLETHKNDIPSSYMALFPHLLQPVLWERTGNIPALVRLLQAFLERGSNTIASAAADKIPGLLGVFQKLIASKANDHQGFYLLNSIIEHMPPESVDQYRKQIFILLFQRLQNSKTTKFIKSFLVFINLYCIKYGALALQEIFDGIQPKMFGMVLEKIIIPEIQKVSGNVEKKICAVGITKLLTECPPMMDTEYTKLWTPLLQSLIGLFELPEDDTIPDEEHFIDIEDTPGYQTAFSQLAFAGKKEHDPVGQMVNNPKIHLAQSLHKLSTACPGRVPSMVSTSLNAEALQYLQGYLQAASVTLL
C-term flag [1]: 3 | C-term IgG [2]: 0 | N-term FLAG [3]: 0 | N-term IgG [4]: 0

B2: HADHB (protein)
chain: AAPAVQTKTKKTLAKPNIRNVVVVDGVRTPFLLSGTSYKDLMPHDLARAALTGLLHRTSVPKEVVDYIIFGTVIQEVKTSNVAREAALGAGFSDKTPAHTVTMACISANQAMTTGVGLIASGQCDVIVAGGVELMSDVPIRHSRKMRKLMLDLNKAKSMGQRLSLISKFRFNFLAPELPAVSEFSTSETMGHSADRLAAAFAVSRLEQDEYALRSHSLAKKAQDEGLLSDVVPFKVPGKDTVTKDNGIRPSSLEQMAKLKPAFIKPYGTVTAANSSFLTDGASAMLIMAEEKALAMGYKPKAYLRDFMYVSQDPKDQLLLGPTYATPKVLEKAGLTMNDIDAFEFHEAFSGQILANFKAMDSDWFAENYMGRKTKVGLPPLEKFNNWGGSLSLGHPFGATGCRLVMAAANRLRKEGGQYGLVAACAAGGQGHAMIVEAYPK
C-term flag [1]: 3 | C-term IgG [2]: 0 | N-term FLAG [3]: 0 | N-term IgG [4]: 0

B3: SERBP1 (protein)
chain: PGHLQEGFGCVVTNRFDQLFDDESDPFEVLKAAENKKKEAGGGGVGGPGAKSAAQAAAQTNSNAAGKQLRKESQKDRKNPLPPSVGVVDKKEETQPPVALKKEGIRRVGRRPDQQLQGEGKIIDRRPERRPPRERRFEKPLEEKGEGGEFSVDRPIIDRPIRGRGGLGRGRGGRGRGMGRGDGFDSRGKREFDRHSGSDRSSFSHYSGLKHEDKRGGSGSHNWGTVKDELTESPKYIQKQISYNYSDLDQSNVTEETPEGEEHHPVADTENKENEVEEVKEEGPKEMTLDEWKAIQNKDRAKVEFNIRKPNEGADGQWKKGFVLHKSKSEEAHAEDSVMDHHFRKPANDITSQLEINFGDLGRPGRGGRGGRGGRGRGGRPNRGSRTDKSSASAPDVDDPEAFPALA
C-term flag [1]: 10 | C-term IgG [2]: 5 | N-term FLAG [3]: 0 | N-term IgG [4]: 4

B4: CPSF6 (protein)
chain: MADGVDHIDIYADVGEEFNQEAEYGGHDQIDLYDDVISPSANNGDAPEDRDYMDTLPPTVGDDVGKGAAPNVVYTYTGKRIALYIGNLTWWTTDEDLTEAVHSLGVNDILEIKFFENRANGQSKGFALVGVGSEASSKKLMDLLPKRELHGQNPVVTPCNKQFLSQFEMQSRKTTQSGQMSGEGKAGPPGGSSRAAFPQGGRGRGRFPGAVPGGDRFPGPAGPGGPPPPFPGNLIKHLVKGTRPLFLETRIPWHMGHSIEEIPIFGLKAGQTPPRPPLGPPGPPGPPGPPPPGQVLPPPLAGPPNRGDRPPPPVLFPGQPFGQPPLGPLPPGPPPPVPGYGPPPGPPPPQQGPPPPPGPFPPRPPGPLGPPLTLAPPPHLPGPPPGAPPPAPHVNPAFFPPPTNSGMPTSDSRGPPPTDPYGRPPPYDRGDYGPPGREMDTARTPLSEAEFEEIMNRNRAISSSAISRAVSDASAGDYGSAIETLVTAISLIKQSKVSADDRCKVLISSLQDCLHGIESKSYGSGSRRERSRERDHSRSREKSRRHKSRSRDRHDDYYRERSRERERHRDRDRDRDRERDREREYRHR
C-term flag [1]: 35 | C-term IgG [2]: 33 | N-term FLAG [3]: 30 | N-term IgG [4]: 28

B5: SRP14 (protein)
chain: VLLESEQFLTELTRLFQKCRTSGSVYITLKKYDGRTKPIPKKGTVEGFEPADNKCLLRATDGKKKISTVVSSKEVNKFQMAYSNLLRANMDGLKKRDKKNKTKKTKAAAAAAAAAPAAAATAPTTAATTAATAAQ
C-term flag [1]: 3 | C-term IgG [2]: 0 | N-term FLAG [3]: 0 | N-term IgG [4]: 0

B6: CHCHD6 (protein)
chain: GSTESSEGRRVSFGVDEEERVRVLQGVRLSENVVNRMKEPSSPPPAPTSSTFGLQDGNLRAPHKESTLPRSGSSGGQQPSGMKEGVKRYEQEHAAIQDKLFQVAKREREAATKHSKASLPTGEGSISHEEQKSVRLARELESREAELRRRDTFYKEQLERIERKNAEMYKLSSEQFHEAASKMESTIKPRRVEPVCSGLQAQILHCYRDRPHEVLLCSDLVKAYQRCVSAAHKG
C-term flag [5]: 3 | N-term FLAG [6]: 0 | C-term IgG [7]: 0 | N-term IgG [8]: 0

B7: TIMP3 (protein)
chain: CTCSPSHPQDAFCNSDIVIRAKVVGKKLVKEGPFGTLVYTIKQMKMYRGFTKMPHVQYIHTEASESLCGLKLEVNKYQYLLTGRVYDGKMYTGLCNFVERWDQLTLSQRKGLNYRYHLGCNCKIKSCYYLPCFVTSKNECLWTDMLSNFGYPGYQSKHYACIRQKGGYCSWYRGWAPPDKSIINATDP
C-term flag [1]: 3 | C-term IgG [2]: 0 | N-term FLAG [3]: 0 | N-term IgG [4]: 0

B8: SLC25A13 (protein)
chain: AAAKVALTKRADPAELRTIFLKYASIEKNGEFFMSPNDFVTRYLNIFGESQPNPKTVELLSGVVDQTKDGLISFQEFVAFESVLCAPDALFMVAFQLFDKAGKGEVTFEDVKQVFGQTTIHQHIPFNWDSEFVQLHFGKERKRHLTYAEFTQFLLEIQLEHAKQAFVQRDNARTGRVTAIDFRDIMVTIRPHVLTPFVEECLVAAAGGTTSHQVSFSYFNGFNSLLNNMELIRKIYSTLAGTRKDVEVTKEEFVLAAQKFGQVTPMEVDILFQLADLYEPRGRMTLADIERIAPLEEGTLPFNLAEAQRQQKASGDSARPVLLQVAESAYRFGLGSVAGAVGATAVYPIDLVKTRMQNQRSTGSFVGELMYKNSFDCFKKVLRYEGFFGLYRGLLPQLLGVAPEKAIKLTVNDFVRDKFMHKDGSVPLAAEILAGGCAGGSQVIFTNPLEIVKIRLQVAGEITTGPRVSALSVVRDLGFFGIYKGAKACFLRDIPFSAIYFPCYAHVKASFANEDGQVSPGSLLLAGAIAGMPAASLVTPADVIKTRLQVAARAGQTTYSGVIDCFRKILREEGPKALWKGAGARVFRSSPQFGVTLLTYELLQRWFYIDFGGVKPMGSEPVPKSRINLPAPNPDHVGGYKLAVATFAGIENKFGLYLPLFKPSVSTSKAIGGGP
C-term flag [5]: 0 | N-term FLAG [6]: 3 | C-term IgG [7]: 0 | N-term IgG [8]: 0
